± gives the uncertainty stated by the source.
Test: protein stability index of a GFP-peptide fusion (yeast GPS) (PSI 1-4); higher = more stable; sorted into four equal gates, so the index is relative within each strain
Outline: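 For each peptide, the protein stability index sums the read frequency in every gate after multiplying it by the gate number. Read frequencies came from plasmids that were PCR-amplified from each gate and Illumina-sequenced, with reads assigned to strains by barcodes. The gates were four equal bins of GFP/Cherry fluorescence ratio applied to mid-log yeast in leucine-free medium carrying a pooled library of tiled 17-residue yeast protein peptides fused downstream of GFP on a Cherry-expressing plasmid.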

Sequence | protein stability index (doa10∆) | protein stability index (pdr5∆) | protein stability index (san1∆) | protein stability index (ubr1∆)
ESLSEEHASLLVRDSKP [MED8] | 2.53 ± 0.084 | 3.04 ± 0.12 | 2.69 ± 0.086 | 2.59 ± 0.099
SQWNDSSIDKIEDRDFL [SIR3] | 2.99 ± 0.17 | 3.21 ± 0.27 | 3.23 ± 0.28 | 3.32 ± 0.15
RIHVNPSYYGVRDTSPH [BRR2] | 1.96 ± 0.1 | 1.93 ± 0.072 | 1.74 ± 0.085 | 1.9 ± 0.058
TKLKNAVQNESVSSPIE [QCR2] | 3.05 ± 0.11 | 3.1 ± 0.084 | 3.25 ± 0.094 | 3.05 ± 0.067
QQIWKSPNFKNYLKYLE [SOH1] | 1.72 ± 0.047 | 1.91 ± 0.047 | 1.61 ± 0.047 | 2.22 ± 0.062
DFTLIPRMASVFENYVK [CDC53] | 3.15 ± 0.091 | 2.88 ± 0.06 | 2.71 ± 0.061 | 3.13 ± 0.081
MPSRFTKTRKHRGHVSA [RPL28] | 1.92 ± 0.06 | 2.19 ± 0.062 | 2.09 ± 0.12 | 2.39 ± 0.062
VLVKWTRTIKQNNFHVL [RGR1] |  | 1.3 ± 0.27 |  | 
KDRISHEVVQDDSFSLL [PCI8] | 3.19 ± 0.082 | 3.46 ± 0.071 | 3.19 ± 0.056 | 3.05 ± 0.075
TAAYARTIGIAVDHRRQ [RPL13A] | 1.58 ± 0.077 | 1.58 ± 0.05 | 1.22 ± 0.088 | 1.77 ± 0.055
DNIDYAPMRLATAALEI [YJL039C/NUP192] | 2.35 ± 0.058 | 2.44 ± 0.041 | 2.29 ± 0.077 | 2.31 ± 0.042
TRLYDYEIRDIDQDIHG [SSN2] | 3.54 ± 0.11 | 3.55 ± 0.16 | 3.48 ± 0.094 | 3.49 ± 0.11
KAFEERHQAGKNQWFFS [RPL27A] | 2.87 ± 0.097 | 3.14 ± 0.11 | 2.65 ± 0.11 | 3.03 ± 0.055
GQKLLAIKYGYEDSGST [SRB4] | 2.83 ± 0.11 | 2.91 ± 0.098 | 2.53 ± 0.1 | 3.25 ± 0.11
GNNVQENELVITSIPKP [RMP1] | 3.42 ± 0.14 | 3.4 ± 0.11 | 3.37 ± 0.065 | 3.15 ± 0.064
RVISEYYSRITLLRLNE [RPN5] | 2.65 ± 0.076 | 1.67 ± 0.05 | 1.68 ± 0.084 | 1.87 ± 0.068
RYVAGVQQRYTQSGGVR [PRE6] | 2.84 ± 0.23 |  |  | 
GSYGSLLRFNGVERLIP [PRE4] | 2 ± 0.064 | 2.44 ± 0.069 | 2.04 ± 0.12 | 2.22 ± 0.12
KNDSAEVRQETQPKAEA [NUT1] | 3.35 ± 0.15 | 3.26 ± 0.11 | 3.36 ± 0.055 | 3.38 ± 0.083

Sequence | protein stability index (doa10∆) | protein stability index (pdr5∆) | protein stability index (san1∆) | protein stability index (ubr1∆)
PEQVYSLLLTNVIITGS [ARP7] | 1.36 ± 0.06 | 1.39 ± 0.047 | 1.17 ± 0.11 | 1.23 ± 0.046
VRSAEYYAKKRAFTKKV [RPL16B] | 2.66 ± 0.1 | 2.18 ± 0.066 | 2.61 ± 0.091 | 3.1 ± 0.063
NAPAWFKLSSESVIEQI [RPS13] | 1.98 ± 0.064 | 1.73 ± 0.054 | 2.34 ± 0.13 | 2.48 ± 0.067
IESFVELGVSIYDFPGT [NUT2] | 2.83 ± 0.081 | 3.07 ± 0.095 | 2.53 ± 0.09 | 2.2 ± 0.038
KKIFGTGKRLAKKVARR [RPS24A] | 3.52 ± 0.064 | 3.34 ± 0.057 | 3.31 ± 0.039 | 3.42 ± 0.039
SMENTPKVPVSAAATPS [GAL11] | 2.07 ± 0.045 | 2.19 ± 0.049 | 2.24 ± 0.065 | 1.78 ± 0.036
YKLNVRSNDPQSSLSKV [NUT2] | 3.21 ± 0.12 | 3.42 ± 0.12 | 3.33 ± 0.071 | 3.41 ± 0.095
AEEQTKLQSQSLHTKNV [YLR018C/POM34] | 3.29 ± 0.058 | 3.44 ± 0.063 | 3.1 ± 0.071 | 3.13 ± 0.049
AMFEICLKRGWGHPTRM [BRR2] |  |  | 2.21 ± 0.14 | 2.96 ± 0.18
LQSLNESKDLLRASFNK [SRB4] | 3.16 ± 0.13 | 3.32 ± 0.13 | 2.98 ± 0.083 | 3.48 ± 0.075
LKYPELSIKNSFIINFI [NUT1] | 1.99 ± 0.062 | 2 ± 0.045 | 2.13 ± 0.076 | 1.94 ± 0.036
QPSKVSSNVQQPQQQLG [RTT102] | 2.82 ± 0.081 | 2.88 ± 0.094 | 2.61 ± 0.082 | 3.03 ± 0.1
DEVGRRSMLTVVRNMLA [YCG1] | 1.54 ± 0.077 | 2.09 ± 0.079 | 3.01 ± 0.13 | 1.52 ± 0.069
VACLFITISIHGKPTKG [SSN8] | 1.19 ± 0.061 | 1.24 ± 0.061 | 1.28 ± 0.16 | 1.5 ± 0.11
PSTAIHTSPHQPSDVKP [SIR4] | 2.81 ± 0.052 | 2.95 ± 0.049 | 2.76 ± 0.046 | 2.36 ± 0.034
RLANLIDYKLRVLTQDG [SMB1] | 2.65 ± 0.089 | 2.69 ± 0.08 | 1.62 ± 0.13 | 2.79 ± 0.047
LHVLVAHKLKKSLDSIP [FAS2] | 2.31 ± 0.091 | 2.1 ± 0.088 | 1.83 ± 0.24 | 1.68 ± 0.073
FTLLDFKKQMQTIMKMG [SRP54] | 1.36 ± 0.13 | 2.67 ± 0.15 | 1.42 ± 0.17 | 2.71 ± 0.17
LPENIILTSLMRSKLEK [CSN9] | 2.38 ± 0.084 | 3.05 ± 0.063 | 2.78 ± 0.061 | 2.7 ± 0.048

Sequence | protein stability index (doa10∆) | protein stability index (pdr5∆) | protein stability index (san1∆) | protein stability index (ubr1∆)
KLINIKKFDISNDNLDL [MED1] | 2.83 ± 0.2 | 3.01 ± 0.15 | 2.48 ± 0.15 | 2.83 ± 0.096
FLQELLKKVQQQQQAAA [SWI1] | 2.06 ± 0.081 | 2.6 ± 0.088 | 2.47 ± 0.1 | 2.85 ± 0.1
VLEERERGQKVKNVKNS [ARP9] | 2.71 ± 0.19 | 2.25 ± 0.078 | 2.71 ± 0.12 | 1.19 ± 0.074
QAKLKKNVETLEEKILA [SMC4] | 3.09 ± 0.08 | 2.98 ± 0.077 | 3.13 ± 0.077 | 3.13 ± 0.066
YVAIVVDPLKSLEDKIL [RRI1] | 1.12 ± 0.069 | 1.38 ± 0.07 |  | 1.68 ± 0.081
VNTTRRFQYSDDEPAEK [YMR129W/POM152] | 2.87 ± 0.22 | 3.17 ± 0.17 | 2.86 ± 0.19 | 2.95 ± 0.19
VQDIIGNGKLSEHFLYL [RPN1] |  |  | 3.29 ± 0.26 | 
THIPQTNLKNHPAYLFK [YLR018C/POM34] | 2.84 ± 0.059 | 2.83 ± 0.04 | 2.64 ± 0.054 | 2.75 ± 0.029
LFIGLFTRPLFVLLEIE [YCS4] | 1.82 ± 0.092 | 1.98 ± 0.083 | 2.11 ± 0.15 | 1.61 ± 0.093
FRPIEIFTDFLPSSNGS [RRP42] | 2.19 ± 0.065 | 3.07 ± 0.08 | 3.09 ± 0.056 | 2.87 ± 0.063
IEPLEINIQSFKDVEHI [BRR2] | 2.5 ± 0.069 | 2.31 ± 0.062 | 2.12 ± 0.074 | 2.67 ± 0.068
LPLATQQQVLNKLRQQA [SNF5] | 2.56 ± 0.27 |  |  | 
RELFVMAREHAPSIIFM [RPT6] | 1.82 ± 0.078 | 1.99 ± 0.085 | 1.4 ± 0.23 | 1.71 ± 0.078
LIKKAVSVRKHLERNRK [RPS13] | 3.43 ± 0.26 | 3.32 ± 0.11 |  | 3.28 ± 0.1
KLNELDELILEAKERYT [NNF1] | 2.98 ± 0.11 | 3.17 ± 0.096 | 3.23 ± 0.058 | 2.82 ± 0.16
RSMVRKWQTLIEANVTV [RPS1A] | 1.65 ± 0.053 | 1.62 ± 0.044 | 1.67 ± 0.079 | 2.24 ± 0.041
KSITLKGRNNESNNKKY [YDL088C/ASM4] | 3.19 ± 0.086 | 3.11 ± 0.066 | 3.13 ± 0.059 | 3.08 ± 0.064
NLERLRSDLQSKIQEIE [YIL149C/MLP2] | 3.08 ± 0.077 | 3.37 ± 0.076 | 3.49 ± 0.073 | 3.33 ± 0.1

— the supplement of paper PMC9732359
